Source: the supplement of paper PMC10126150
± gives the standard deviation of the averaged measurements.

tested on: ATP; experiment: switch fluorescence ratio, 500 uM ATP over buffer (Cy3 cluster intensity, sum of 5 cycles each) (fold (ratio)); higher = stronger signal-on switching upon ATP binding; sequences stand for … in TCGTCGGCAGCGTCAGATGTGTATAAGAGACAGTTTTTTTTTTTTTTTTTTTTTTTTT…TC; conditions: aptamer strand: ATP DNA aptamer (quencher-CACCTGGGGGAGTATTGCGGAGGAAGG + anchor), 100 nM annealed; ATP concentration: 500 uM
Outline: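 Five buffer/ATP imaging cycles were run on Cy3-labelled switching-strand clusters on a modified Illumina MiSeq flow-cell, with NaOH stripping and re-annealing between cycles. In each cycle, clusters annealed to 100 nM quencher-labelled ATP aptamer were imaged in selection buffer, then after 15 min with 500 uM ATP at 22 °C. Per cluster, the fluorescence ratio is summed target-cycle over summed buffer-cycle Cy3 intensity, averaged per switch-domain sequence. Only clusters within 100-1000 RFU were kept.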
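Note: ATP exposure 15 min at 22 °C before imaging.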

Sequence	switch fluorescence ratio
GTTGAAGAAA	0.998 ± 0.072
GTTGAATCTG	1.26 ± 0.36
GTTGACCGGC	0.996 ± 0.011
GTTGAGCGGG	0.9786 ± 0.0069
GTTGAGTAGG	0.994 ± 0.012
GTTGATAAGT	1.01 ± 0.0084
GTTGATATAG	1 ± 0.021
GTTGATGCCG	1.001 ± 0.0012
GTTGATGGTG	1 ± 0.039
GTTGCAGGGT	1.004 ± 0.0065
GTTGCCGAGT	1.024 ± 0.0048
GTTGCGATGA	1.02 ± 0.013
GTTGCGGGGG	0.9937 ± 0.0015
GTTGCGGGGT	1.02 ± 0.029
GTTGCGTCGA	0.997 ± 0.016
GTTGCGTCTA	1.04 ± 0.033
GTTGCTACCT	1.05 ± 0.038
GTTGCTGATT	1.02 ± 0.04
GTTGCTGGGG	0.998 ± 0.011
GTTGCTTTGG	1.04 ± 0.017
GTTGGAAGAT	1.03 ± 0.015
GTTGGAGCCT	0.995 ± 0.065
GTTGGCAACA	1.04 ± 0.056
GTTGGGAAAA	1.01 ± 0.034
GTTGGGGAAT	1.04 ± 0.093

Sequence	switch fluorescence ratio
GTTGGGGAGC	1.005 ± 0.0066
GTTGGGGAGT	0.9776 ± 0.0062
GTTGGGGGAG	0.978 ± 0.02
GTTGGGGGCC	0.997 ± 0.013
GTTGGGGGTA	0.999 ± 0.028
GTTGGGGGTG	0.992 ± 0.037
GTTGGGGTGC	1.01 ± 0.028
GTTGGGTATA	0.996 ± 0.014
GTTGGGTCAT	1.01 ± 0.045
GTTGGGTGAG	0.987 ± 0.02
GTTGGGTGGG	0.984 ± 0.013
GTTGGGTTGG	1 ± 0.033
GTTGGTCTGG	0.943 ± 0.048
GTTGGTGACG	1.048 ± 0.0055
GTTGGTGTTG	0.998 ± 0.032
GTTGGTTTTT	0.975 ± 0.027
GTTGTAAAAA	0.968 ± 0.046
GTTGTAGGGT	0.976 ± 0.022
GTTGTCCTTG	1.01 ± 0.015
GTTGTCGGGG	1.02 ± 0.018
GTTGTGAGCG	1.01 ± 0.048
GTTGTGCGGG	1.02 ± 0.0089
GTTGTGGGGA	1.02 ± 0.023
GTTGTGTCTG	0.979 ± 0.013
GTTGTGTTTG	0.998 ± 0.022

Sequence	switch fluorescence ratio
GTTGTTACAA	1.004 ± 0.0092
GTTGTTAGCG	1 ± 0.037
GTTGTTATTT	1 ± 0.011
GTTTAAAAGC	0.9842 ± 0.0061
GTTTAAACGC	1.01 ± 0.026
GTTTAAAGGG	0.998 ± 0.013
GTTTAAATAG	1.04 ± 0.011
GTTTAAGAAA	0.998 ± 0.027
GTTTAAGTTC	0.988 ± 0.017
GTTTAATTGC	0.995 ± 0.049
GTTTAATTTT	0.987 ± 0.033
GTTTACGTTC	1.02 ± 0.049
GTTTAGATG	0.989 ± 0.022
GTTTATAGGG	0.985 ± 0.025
GTTTATGCAC	1.06 ± 0.084
GTTTATGGGT	1.023 ± 0.009
GTTTATGGTT	1 ± 0.022
GTTTATTCGA	0.989 ± 0.014
GTTTATTGTT	1 ± 0.047
GTTTATTTCT	1.02 ± 0.049
GTTTCAAGAT	0.994 ± 0.044
GTTTCCAGTT	1.03 ± 0.023
GTTTCCTATT	0.959 ± 0.013
GTTTCGTCCA	2.1 ± 1.6
GTTTCTGTTA	0.9574 ± 0.0033

Sequence	switch fluorescence ratio
GTTTGCATTT	0.981 ± 0.015
GTTTGCGACT	0.998 ± 0.067
GTTTGCGCAG	1.02 ± 0.018
GTTTGCTCCC	1.15 ± 0.086
GTTTGCTTAG	0.986 ± 0.024
GTTTGGGGTA	0.986 ± 0.013
GTTTGGGGTC	0.984 ± 0.018
GTTTGGGTAG	1.02 ± 0.034
GTTTGGGTGT	1 ± 0.016
GTTTGGTTGG	1 ± 0.02
GTTTGTAAGC	1.03 ± 0.01
GTTTGTAGTG	1.01 ± 0.026
GTTTGTCTGC	0.963 ± 0.025
GTTTGTCTTT	1.02 ± 0.012
GTTTGTGCGG	0.9811 ± 0.0084
GTTTGTGGTA	0.978 ± 0.011
GTTTGTGGTT	0.988 ± 0.019
GTTTGTGTTC	0.988 ± 0.015
GTTTTAACTT	0.999 ± 0.054
GTTTTAAGGC	1.01 ± 0.058
GTTTTACCGC	1.01 ± 0.018
GTTTTACGTC	0.981 ± 0.047
GTTTTACTGA	1.03 ± 0.021
GTTTTATCCG	1.025 ± 0.0045
GTTTTCAGTA	0.982 ± 0.0022

Sequence	switch fluorescence ratio
GTTTTCGCCG	1.03 ± 0.11
GTTTTCGGGG	1.04 ± 0.029
GTTTTCTATG	1 ± 0.021
GTTTTCTTCA	1.04 ± 0.018
GTTTTGAGAG	0.9595 ± 0.0086
GTTTTGCGTT	0.988 ± 0.028
GTTTTGGAGG	0.9691 ± 0.0043
GTTTTGGGAG	1.02 ± 0.033
GTTTTGGGCC	1.02 ± 0.05
GTTTTGGGGG	1.02 ± 0.025
GTTTTGTAAA	0.975 ± 0.026
GTTTTGTATG	1.004 ± 0.0044
GTTTTTAACG	1.02 ± 0.05
GTTTTTACTG	1.05 ± 0.081
GTTTTTAGCA	0.9719 ± 0.005
GTTTTTATAG	0.992 ± 0.014
GTTTTTCAAG	0.975 ± 0.01
GTTTTTCGGG	0.981 ± 0.034
GTTTTTCGT	1 ± 0.062
GTTTTTCTGT	1.01 ± 0.014
GTTTTTGACA	0.989 ± 0.015
GTTTTTGCTT	1.01 ± 0.032
GTTTTTGGAA	1.05 ± 0.013
GTTTTTGGAC	0.982 ± 0.029
GTTTTTGGAT	0.991 ± 0.0049

Sequence	switch fluorescence ratio
GTTTTTGGGG	0.987 ± 0.055
GTTTTTTAAA	0.987 ± 0.04
GTTTTTTTGG	1 ± 0.018
TAAAAAAACG	1.1 ± 0.021
TAAAAAAGCC	1.03 ± 0.091
TAAAAAATGT	1 ± 0.019
TAAAAAGAGC	0.984 ± 0.022
TAAAAAGGTG	1.12 ± 0.11
TAAAAATAGC	1.024 ± 0.0095
TAAAAATATG	0.9907 ± 0.0013
TAAAAATCAT	1.01 ± 0.034
TAAAAATCGA	0.993 ± 0.0013
TAAAAATGAC	1.07 ± 0.1
TAAAAATGCG	0.951 ± 0.065
TAAAAATTTA	1.01 ± 0.048
TAAAACGCCC	1.15 ± 0.04
TAAAAGACTG	0.992 ± 0.094
TAAAAGGGTC	0.942 ± 0.085
TAAAATAGAG	1 ± 0.035
TAAAATCCTG	1.05 ± 0.039
TAAAATGGAC	1.03 ± 0.028
TAAAATGGCG	1 ± 0.055
TAAAATGGGA	0.981 ± 0.027
TAAAATGTTA	0.985 ± 0.0063
TAAAATGTTT	0.998 ± 0.013

Sequence	switch fluorescence ratio
TAAAATTCTT	1.01 ± 0.025
TAAACAATTT	0.978 ± 0.013
TAAACCCTGC	1.07 ± 0.032
TAAACCGATG	1.21 ± 0.048
TAAACCTGTG	1.05 ± 0.088
TAAACGCCTC	1.08 ± 0.058
TAAACGGGAT	0.999 ± 0.019
TAAACGGGCG	0.983 ± 0.019
TAAACGGGTA	1.04 ± 0.02
TAAAGAACCA	1.016 ± 0.0053
TAAAGAAGGT	1.01 ± 0.033
TAAAGACCGA	1.08 ± 0.048
TAAAGAGAGA	1.03 ± 0.012
TAAAGAGAGC	1.01 ± 0.097
TAAAGAGTCG	1.02 ± 0.063
TAAAGATATC	0.972 ± 0.028
TAAAGCATTA	1.04 ± 0.025
TAAAGCGTAG	0.998 ± 0.027
TAAAGGAAAG	1.02 ± 0.03
TAAAGGAAGG	0.9801 ± 0.0066
TAAAGGATAA	0.9849 ± 0.0093
TAAAGGGGGT	1.01 ± 0.047
TAAAGGTATC	0.9977 ± 0.0048
TAAAGGTCAG	0.996 ± 0.018
TAAAGGTGTA	1 ± 0.026

Sequence	switch fluorescence ratio
TAAAGTACGT	1.11 ± 0.021
TAAAGTAGAT	0.988 ± 0.027
TAAAGTATAT	0.9976 ± 0.004
TAAAGTCCGA	1.014 ± 0.0028
TAAAGTGTTG	1.02 ± 0.024
TAAATAGAAT	1.11 ± 0.1
TAAATATGGG	0.999 ± 0.034
TAAATCAGAG	0.99 ± 0.03
TAAATCGTAG	0.991 ± 0.0099
TAAATCTCTG	1.004 ± 0.0055
TAAATGATTT	1.01 ± 0.014
TAAATGGTCC	1.073 ± 0.0063
TAAATGTCAT	0.998 ± 0.027
TAAATGTGGA	0.972 ± 0.03
TAAATTAGCT	1.02 ± 0.037
TAAATTAGGA	0.988 ± 0.074
TAAATTTATA	0.992 ± 0.021
TAAATTTATT	1.01 ± 0.017
TAAATTTGAC	0.996 ± 0.036
TAACAAGGCA	0.985 ± 0.013
TAACACAGTC	1.04 ± 0.054
TAACACTAGC	1.011 ± 0.0037
TAACAGGTTG	1.02 ± 0.019
TAACCAATTT	1.01 ± 0.018
TAACCCGGTT	0.999 ± 0.042
